From publication PMC7145517

Assays:
[1] = target: Myceliophteria thermophila RbBP5 β-propeller domain (residues 1-347) (Myceliophteria thermophila); assay: ITC; VP-ITC; CtCfp1 RID (350 μM) injected into MtRbBP5 β-propeller (35 μM); 20°C; 50 mM Tris pH 8.0, 200 mM NaCl, 2.5 mM β-mercaptoethanol
[2] = target: Myceliophteria thermophila RbBP5 β-propeller domain (residues 1-347); assay: ITC; settings: parent: 0.25

Q: For “Chaetomium thermophilum Cfp1 RID domain, Tyr380 substituted by an alanine (domain or fragment)”, which fold loss in binding against wild-type Cfp1 [1] is on record?
A: 20 fold

Q: Which Kd [2] does the source give for “Chaetomium thermophilum Cfp1 RID domain (residues 322-508) Y380A” here?
A: 4.06 µM
